Test results as given in doi:10.1101/2020.03.22.002394.

How the values were obtained:
[1] = molecular target: murine κ-opioid receptor (κOR-GFP and SNAP-κOR, two differently tagged copies co-expressed) (murine) (UniProt P33534); assay: PhotoGate single-molecule co-localisation imaging
[2] = molecular target: murine κ-opioid receptor, split GFP pair (SNAP-κOR-GFP10 and κOR-GFP11-mKate co-expressed) (murine) (UniProt P33534); assay: split reporter

co-localization time [1]	dimeric fraction [1]	fraction of receptors in yellow spots [1]	yellow fraction at a density of 14 / µm^2 [1]	yellow fraction at densities of > 100 / µm^2 [1]	GFP-positive fraction [2]	Substance
476 ms	< 100%	33%	10%	46%	–	murine κ-opioid receptor (κOR-GFP and SNAP-κOR, two differently tagged copies co-expressed) (from UniProt P33534 1-380)
–	–	–	–	–	91%	murine κ-opioid receptor, split GFP pair (SNAP-κOR-GFP10 and κOR-GFP11-mKate co-expressed) (from UniProt P33534 1-380)
